# The supplement of paper PMC9732359
# ± gives the uncertainty stated by the source.
# Experiment: protein stability index of a GFP-peptide fusion (yeast GPS) (PSI 1-4); higher = more stable; sorted into four equal gates, so the index is relative within each strain
# Outline: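 Each library plasmid carries Cherry plus GFP with a tiled 17-residue yeast protein peptide fused downstream, and the pooled library was carried in yeast. Mid-log cultures in leucine-free medium were sorted into four equal gates by GFP/Cherry ratio. Reads from Illumina sequencing of PCR-amplified plasmids from each gate were assigned to strains by barcodes. Per peptide, the protein stability index was computed as the summed products of gate read frequency and gate number.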
Sequence,protein stability index (doa10∆),protein stability index (pdr5∆),protein stability index (san1∆),protein stability index (ubr1∆)
SEKNKRQSKSSGKSNTS [ITC1],3.06 ± 0.094,3.31 ± 0.071,2.98 ± 0.073,3.16 ± 0.1
VVDFTSLPEELKKRYDL [YMR129W/POM152],2.14 ± 0.21,2.33 ± 0.15,2.96 ± 0.088,2.62 ± 0.12
AARHKQHEQGTFEKHDR [RRI2],3.02 ± 0.067,3.04 ± 0.23,–,2.96 ± 0.14
LVTAGVAAAGITASTLL [CYT1],1.57 ± 0.058,1.76 ± 0.066,1.62 ± 0.098,1.67 ± 0.044
MAQENSMERKVQGAAPW [MCD1],3.35 ± 0.26,2.92 ± 0.11,–,–
IGARSQGAKTYLERTLD [PRE5],3.36 ± 0.13,3.34 ± 0.069,3.23 ± 0.07,3.22 ± 0.066
MNTTLGSIGSRKYSFNY [YAR002W/NUP60],1.75 ± 0.06,2.29 ± 0.066,1.87 ± 0.095,1.41 ± 0.041
IVPGTYIQERNPTQRPQ [RPS10A],3.01 ± 0.054,3.08 ± 0.043,3.05 ± 0.037,3.12 ± 0.034
IDESMPDTAIDSQMDEA [GRR1],3.01 ± 0.093,3.08 ± 0.08,2.85 ± 0.078,3.06 ± 0.059
LKPDLNKITNQGVTCLH [NAS6],2.36 ± 0.11,2.05 ± 0.052,3.13 ± 0.079,2.38 ± 0.059
ENNSDSNSNNNGNKDSS [SWI1],2.95 ± 0.089,3.12 ± 0.076,3.05 ± 0.06,3.04 ± 0.068
LSLHTGFIENCNGSALV [MTR3],2.65 ± 0.066,3 ± 0.06,2.79 ± 0.058,2.74 ± 0.067
VQDCRYSLASVTLKGAK [POP1],2.35 ± 0.041,2.68 ± 0.051,2.61 ± 0.04,2.56 ± 0.049
ARDLFLKIYYKEEFSSD [RRI2],–,2.44 ± 0.15,2.03 ± 0.22,2.9 ± 0.1
RTDQYTIDNIDSENFSF [YMR129W/POM152],2.88 ± 0.042,2.99 ± 0.043,2.91 ± 0.039,3.01 ± 0.036
VMMDVDSSGVNDLHHSE [RPN3],3.34 ± 0.082,3.31 ± 0.076,3.35 ± 0.066,3.19 ± 0.054
PAGFTHKLSNWLFGWND [YDL088C/ASM4],2.86 ± 0.073,3.07 ± 0.067,3.33 ± 0.053,2.96 ± 0.043
SLSYMAFPNASKKNRPT [RRP40],2.2 ± 0.22,2.89 ± 0.15,–,2.9 ± 0.14
DHKRFIVFHNEFSEHTF [DIS3],2.55 ± 0.042,2.92 ± 0.048,2.85 ± 0.046,3.02 ± 0.038
PNTSDNNNNSNNHNMRN [SWI1],3.12 ± 0.053,3.02 ± 0.059,2.93 ± 0.046,3.15 ± 0.038
SLTKDKSIRKDTVEEKK [SIR4],3.03 ± 0.064,3.23 ± 0.062,3.1 ± 0.056,3.12 ± 0.069
AQDSLTVTIASSLNLED [RPB8],1.65 ± 0.048,1.92 ± 0.044,2.23 ± 0.079,1.89 ± 0.045
YLEDIIGTANYKPLIEE [SMC4],2.95 ± 0.1,3.28 ± 0.11,3.17 ± 0.077,3.23 ± 0.076
QIIRLFYSKNRLLITGT [ISW2],2.55 ± 0.23,1.56 ± 0.14,–,–
KANEKKESDESKSAFSF [YJL041W/NSP1],2.95 ± 0.099,3.4 ± 0.07,3.18 ± 0.042,3.12 ± 0.043
EGLCIVAGSKCWAVRAD [RRP45],2.38 ± 0.073,2.43 ± 0.071,2.53 ± 0.079,2.57 ± 0.07

Sequence,protein stability index (doa10∆),protein stability index (pdr5∆),protein stability index (san1∆),protein stability index (ubr1∆)
PNGEGSKTWETYEMRIH [RPS20],3.09 ± 0.091,3.35 ± 0.069,3.05 ± 0.095,3.33 ± 0.045
SIIGNKNNNYTWEECVF [REC8],2.78 ± 0.15,2.62 ± 0.23,2.73 ± 0.085,2.43 ± 0.11
ACHVEVPYVLMGQIATF [COB],2.08 ± 0.092,1.98 ± 0.088,1.87 ± 0.12,1.94 ± 0.066
FSISYKPPTQKTDTKVS [SRP21],2.24 ± 0.037,2.15 ± 0.042,1.98 ± 0.059,2.11 ± 0.033
VDKALIAEIKKTPLLKQ [RPL6A],2.64 ± 0.088,2.12 ± 0.28,1.92 ± 0.16,–
FARLSRLLSLWEVFQMA [RPC82],1.9 ± 0.11,1.97 ± 0.096,2.86 ± 0.13,2.08 ± 0.051
MGMDLYKTSKAAQDVWN [FAS1],3.08 ± 0.13,3.37 ± 0.16,3.08 ± 0.13,3.43 ± 0.077
RLGFFYNDQLYVKEKLE [RPN7],2.56 ± 0.17,3.13 ± 0.19,–,3.5 ± 0.087
HAKFSPVSTASYRLLPQ [RPC40],1.71 ± 0.076,1.75 ± 0.055,1.84 ± 0.089,2.23 ± 0.077
TGAGAFGTGQSTFGFNN [YJL041W/NSP1],2.72 ± 0.055,2.57 ± 0.064,3.02 ± 0.058,2.85 ± 0.046
SLFTYFREAIVATEPLL [PRP8],1.82 ± 0.048,1.83 ± 0.051,2.73 ± 0.063,1.97 ± 0.041
MIIFLKNYDATDKPFSS [CSI1],2.63 ± 0.059,2.85 ± 0.062,2.92 ± 0.05,2.92 ± 0.048
AILVPMTVNDQPIEKNG [YJR042W/NUP85],2.44 ± 0.11,1.79 ± 0.073,2.84 ± 0.074,2.8 ± 0.079
QEASKQYTKDEQFYTKD [RPN2],3.41 ± 0.085,3.3 ± 0.086,3.19 ± 0.083,3.25 ± 0.056
LRVEHIKHSKCRQEFLE [RPL21A],1.59 ± 0.21,2.43 ± 0.16,1.17 ± 0.18,1.31 ± 0.11
KKMMNTLVHTRVKIANT [SSN2],2.69 ± 0.066,2.35 ± 0.05,2.67 ± 0.041,2.78 ± 0.033
IRKLVKNGTIVKKAVTV [RPL19A],2.88 ± 0.17,3.08 ± 0.12,3.15 ± 0.12,3.28 ± 0.072
EQEDIIEKTESVDKKVD [SWI3],3.04 ± 0.07,3.02 ± 0.081,3.14 ± 0.041,2.99 ± 0.094
AAMVIMHLMALHIHGSS [COB],1.9 ± 0.051,1.48 ± 0.059,1.35 ± 0.093,1.35 ± 0.044
LKSHYYQTCKNSEYLKR [SMC2],1.54 ± 0.067,1.5 ± 0.057,1.36 ± 0.091,1.85 ± 0.046
NPFTSATSSTNANAGLF [YOR098C/NUP1],2.72 ± 0.077,2.84 ± 0.1,2.82 ± 0.093,3.31 ± 0.074
FVSSGFDTSIKLDIISD [RPN14],2.39 ± 0.045,2.53 ± 0.047,2.23 ± 0.057,2.44 ± 0.035
QRIIKELSIRFPQYKLT [ARP7],1.9 ± 0.058,1.67 ± 0.089,2.12 ± 0.081,1.7 ± 0.047
VGMRYFHKQQAHFWKPV [RPL28],–,3.02 ± 0.11,–,2.83 ± 0.09
DISATQLPKQLWRNFCR [ITC1],2.61 ± 0.054,2.68 ± 0.048,2.71 ± 0.035,2.8 ± 0.036
IRIYDLGKKKATVDEFP [RPL10],1.47 ± 0.054,1.51 ± 0.048,1.21 ± 0.098,1.29 ± 0.035
